B1: anti-GPC-3 IgG1 clone 3C12 (antibody, V domains shown)
VH: QVTLKESGPTLVKPTQTLTLTCTFSGFSLSTSGVGVGWIRQPPGKALEWLALIYWNDDKRYSPSLKSRLTITKDTSKNQVVLTMTNMDPVDTATYYCAHSRIAARRVLDYWGQGTL
VL: QSVLTQPPSASVAPGKTARITCGGNNIGSKSVHWYQQKPGQSPVLVIYQDTKRPSGIPERFSGSNSGNTATLTISGAQPMDEADYYCQAWYSTIMVFGGGTK
notes: Tested as IgG1; also called monoclonal antibody 3C12
B2: anti-GPC-3 IgG1 clone 3D12 (antibody, V domains shown)
VH: EVQLVQSGAEVKKPGSSVKVSCKASGGTFSSYAISWVRQAPGQGLEWMGGIIPIFGTANYAQKFQGRVTITADKSTSTAYMELSSLRSEDTAVYYCARGIAARPSYYYYMDVWGKGTT
VL: not shown
notes: Tested as IgG1; also called monoclonal antibody 3D12
B3: anti-GPC-3 IgG1 clone 4A5 (antibody, V domains shown)
VH: EVQLVQSGAEVKKPGASVKVSCKASGYTFTSYGISWVRQAPGQGLEWMGWISAYNGNTNYAQKLQGRVTMTTDTSTSTAYMELRSLRSDDTAVYYCARDGLSSSWFYYYYGMDVWGQGTT
VL: not shown
notes: Tested as IgG1; also called monoclonal antibody 4A5
B4: anti-GPC-3 IgG1 clone 4A12 (antibody, V domains shown)
VH: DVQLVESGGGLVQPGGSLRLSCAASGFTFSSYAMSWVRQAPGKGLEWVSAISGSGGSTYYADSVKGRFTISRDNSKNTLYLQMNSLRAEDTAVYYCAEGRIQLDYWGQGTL
VL: LPVLTQPPSVSVSPGQTARITCSGYELGDKYAFWYQQKPGQSPVLVIYQDTKRPSGIPERFSGSSSGDTATLIISGTQILDEADYYCQAWDSSTHVVFGGGTK
notes: Tested as IgG1; also called monoclonal antibody 4A12
B5: anti-GPC-3 IgG1 clone 1C4 (antibody, V domains shown)
VH: QVQLVQSGGGLVKPGRSLRLSCTASGFTFGDYAMHWVRQAPGKGLEWVAVISYDGSNKYYADSVKGRFTISRDNSKNTLYLQMNSLRAEDTAVYYCARDYGDYYRPYGMDVWGQGTT
VL: DIQMTQSPSTLSASVGDRVTITCRASQSISKWLAWYQHKPGKAPKVLIYKASTLQSGVPSRFSGSGSGTEFTLTISSLQPEDFATYYCQQLNSYPLTFGGGTK
notes: Tested as IgG1; also called monoclonal antibody 1C4
B6: anti-GPC-3 IgG1 clone 4F9 (antibody, V domains shown)
VH: EVQLVQSGAEVKKPGASVKVSCKASGYTFRNYGISWVRQAPGQGLEWMGWISAYNGNTNYAQKLQGRVTMTTDTSTSTAYMELRSLRSDDTAVYYCARADSSSWYVGTYYYYYGMDVWGQGTT
VL: not shown
notes: Tested as IgG1; also called monoclonal antibody 4F9
B7: anti-GPC-3 IgG1 clone 4G11 (antibody, V domains shown)
VH: QVQLQESGPGLVKPSGTLSLTCAVSGGSISSSNWWSWVRQPPGKGLEWIGEIYHSGSTNYNPSLKSRVTISVDKSKNQFSLKLSSVTAADTAVYYCARDTSGVAFDYWGQGTL
VL: EIVLTQSPGTLSLSPGERATLSCRASQSVSSSYLAWYQQKPGQAPRLLIYGASSRATGIPDRFSGGGSGTDFTLTISRLEPEDSAVYYCQQYDHSPTFGQGTK
notes: Tested as IgG1; also called monoclonal antibody 4G11
B8: anti-GPC-3 IgG1 clone 4H1 (antibody, V domains shown)
VH: EVQLVQSGGGVVQPGRSLRLSCAASGFTFSSYAMHWVRQAPGKGLEWVAVISYDGSNKYYADSVKGRFTISRDNSKNTLYLQMNSLRAEDTAVYYCARAPGLEDYWGQGTL
VL: DIQMTQSPSSLSASVGDRVTITCRASQSISSYLNWYQQKPGTAPKLLIYAASSSLQSGVPSRFSGSGSGTDFALTISSLQPEDFATYYCLQDYNYPLTFGGGTK
notes: Tested as IgG1; also called monoclonal antibody 4H1
B9: anti-GPC-3 IgG1 clone 1D2 (antibody, V domains shown)
VH: EVQLVQSGAEVKKPGSSVKVSCKASGGTFSSYAISWVRQAPGQGLEWMGGIIPIFGTANYAQKFQGRVTITADKSTSTAYMELSSLRSEDTAVYYCAREWQQQLVPLGYMDVWGKGTT
VL: ETTLTQSPGTLSLSPGERATLSCRASHSVSSNFLAWYQQKPGQAPRLLIYAASSRTTGVPDRFSGSGSGTDFTLTISRLEPEDSAVYYCQQYGYSPLYTFGQGTK
notes: Tested as IgG1; also called monoclonal antibody 1D2
B10: anti-GPC-3 IgG1 clone 1D3 (antibody, V domains shown)
VH: QVQLVQSGAEVKKPGASVKVSCKASGYTFTGYYMHWVRQAPGQGLEWMGWINPNSGGTNYAQNFQGRVTITRDTSASTAYMELSSLRSEDTAVYYCARGSWQTGSFDIWGQGTT
VL: SYELTQPPSVSGTPGQSVTISCSGSNSNLGSNYVYWYQVVPGTAPKLVIYRNKYRPPGVPDRFSGSKSGTSASLAISGLRSDDEAEYYCSGWDDSLSGRLFGGGTK
notes: Tested as IgG1; also called monoclonal antibody 1D3

What was measured:
[1] = target: T1, recombinant human GPC-3 protein (human, UniProt P51654 25-559, limits assumed); experiment: SPR, Biacore T200
T1 construct: also called glypican-3; recombinant GPC-3 protein
Protocol: Affinity of 24 anti-GPC-3 IgG₁ antibodies was measured via Surface Plasmon Resonance (SPR) analysis using Biacore™ T200 system and shown in Table E3 (below).

[2] = target: T1, recombinant human GPC-3 protein; experiment: binding ELISA with biotin-hGPC-3, EC50 calculated from the curves of FIG. 1A to 1C

Row | Binder | Kd [1] [nM] | koff [1] [s⁻¹] | kon [1] [M⁻¹ s⁻¹] | EC50 [2] [nM]
1 | B1 | 31.2 | 0.00783 | 251000 | 6.76
2 | B2 | 32.4 | 0.0035 | 108000 | 45.5
3 | B3 | 12.5 | 0.000946 | 75700 | 15.6
4 | B4 | 22.9 | 0.00609 | 266000 | 6.61
5 | B5 | 14.1 | 0.0134 | 949000 | 1.95
6 | B6 | 10.5 | 0.00172 | 164000 | 5.29
7 | B7 | 15.5 | 0.00229 | 147000 | 7.59
8 | B8 | 44.2 | 0.0137 | 311000 | 4.1
9 | B9 | 4.18 | 0.00257 | 615000 | 1.42
10 | B10 | 17.2 | 0.00293 | 170000 | 1.17
